Holding throughout (format): cell-based
One assay concerns the target T1, CODA1237 (Homo sapiens, UniProt P36544, F159M/H163T/I152M/R155K/V154L/W156N/Y151P).
T1 construct: expressed in transfected cells; host or cells: Lenti-X 293T (LX293T, Clontech) stably expressing mutant YFP (H148Q/I152L) reporter
The assay is described as follows: Anion reporter (YFP quench) plate assay, ligand response of cells expressing CODA1237 compared with CODA71. Conditions: FIG. 1, various ligand doses.

Assay [1] deals with Lenti-X 293T cells expressing mutant YFP reporter. The assay is described as follows: Anion reporter (YFP quench) plate assay, responsiveness of engineered receptors to acetylcholine or TC-5619. The following applies: FIG. 3, increasing doses of acetylcholine.
Another assay deals with HEK293T cells.

Substitutions are numbered along the chain they refer to. Names and notes keep the numbering of the source.

T1 sequence (P36544 with tags, fused parts or gaps Y151P/I152M/V154L/R155K/W156N/F159M/H163T): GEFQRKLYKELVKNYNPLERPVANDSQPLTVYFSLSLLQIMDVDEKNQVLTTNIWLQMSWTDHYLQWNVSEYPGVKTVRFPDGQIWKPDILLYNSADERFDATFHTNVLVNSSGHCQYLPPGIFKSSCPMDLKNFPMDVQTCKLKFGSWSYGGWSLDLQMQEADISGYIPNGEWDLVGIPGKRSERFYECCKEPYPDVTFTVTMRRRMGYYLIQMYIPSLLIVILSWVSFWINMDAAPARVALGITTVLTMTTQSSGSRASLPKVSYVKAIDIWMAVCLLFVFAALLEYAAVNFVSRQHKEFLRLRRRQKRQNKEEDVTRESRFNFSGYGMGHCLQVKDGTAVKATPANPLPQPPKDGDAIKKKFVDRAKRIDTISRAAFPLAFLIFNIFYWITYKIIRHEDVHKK

Consider `c1ccc(-c2nnc(O[C@@H]3C4CC5C[C@H]3CN(C5)C4)s2)cc1` [ABT-126], for which the “Responsiveness (percent quench of YFP fluorescence) of cells expressing CODA1237 compared with cells expressing CODA71” value on CODA1237 is on record as “more responsive”.
The same measure, in the same setting: then `O=C(N[C@@H]1CN2CCC1CC2)c1n[nH]c2ccccc12` [RG3487], with “more responsive”.

B1: CODA1344: α7-nAChR LBD: GlyRα3 isoform L IPD, SEQ ID NO: 63 (protein)
chain: MRCSPGGVWLALAASLLHVSLQGEFQRKLYKELVKNYNPLERPVANDSQPLTVYFSLSLLQIMDVDEKNQVLTTNIWLQMSWTDHYLQWNVSEYPGVKTVRFPDGQIWKPDILLYNSADERFDATFHTNVLVNSSGHCQYLPPGIFKSSCYIDVRWFPFDVQHCKLKFGSWSYGGWSLDLQMQEADISGYIPNGEWDLVGIPGKRSERFYECCKEPYPDVTFTVTMRRRMGYYLIQMYIPSLLIVILSWVSFWINMDAAPARVALGITTVLTMTTQSSGSRASLPKVSYVKAIDIWMAVCLLFVFSALLEYAAVNFVSRQHKELLRFRRKRKNKTEAFALEKFYRFSDMDDEVRESRFSFTAYGMGPCLQAKDGMTPKGPNHPVQVMPKSPDEMRKVFIDRAKKIDTISRACFPLAFLIFNIFYWVIYKILRHEDIHQQQD
modifications: CHRNA7/GLRA3 isoform L
Regarding B1, the “Responsiveness to acetylcholine (percent quench of YFP) using CODA71 as the reference point” value in assay [1] is “lower responsiveness”.

B2: CODA1343: α7-nAChR(Gly-cys) LBD: GlyRα3 isoform K IPD, SEQ ID NO: 71 (protein)
chain: MRCSPGGVWLALAASLLHVSLQGEFQRKLYKELVKNYNPLERPVANDSQPLTVYFSLSLLQIMDVDEKNQVLTTNIWLQMSWTDHYLQWNVSEYPGVKTVRFPDGQIWKPDILLYNSADERFDATFHTNVLVNSSGHCQYLPPGIFKSSCPMDLKNFPMDVQTCKLKFGSWSYGGWSLDLQMQEADISGYIPNGEWDLVGIPGKRSERFYECCKEPYPDVTFTVTMRRRMGYYLIQMYIPSLLIVILSWVSFWINMDAAPARVALGITTVLTMTTQSSGSRASLPKVSYVKAIDIWMAVCLLFVFSALLEYAAVNFVSRQHKELLRFRRKRKNKDDEVRESRFSFTAYGMGPCLQAKDGMTPKGPNHPVQVMPKSPDEMRKVFIDRAKKIDTISRACFPLAFLIFNIFYWVIYKILRHEDIHQQQD
modifications: CHRNA7_(Cys-loop)/GLRA3 isoform K
Take B2: in assay [1], the “Responsiveness to acetylcholine (percent quench of YFP) using CODA71 as the reference point” value is “higher responsiveness”. In the assay on HEK293T cells, the “Percentage of surface expressing (α-bungarotoxin staining positive) cells” value is given as “higher percentage of surface expressing cells” and the “Surface expression level (mean fluorescent intensity of α-bungarotoxin staining positive cells)” value (“Surface expression level” below) is given as “higher surface expression”.

B3: CODA1345: α7-nAChR LBD: GlyRα3 isoform K IPD, SEQ ID NO: 70 (protein)
chain: B2 chain with P151Y, M152I, L154V, K155R, N156W, M159F, T163H
modifications: CHRNA7/GLRA3 isoform K
For the molecule B3, in the assay on HEK293T cells, the “Percentage of surface expressing (α-bungarotoxin staining positive) cells” value is recorded as “higher percentage of surface expressing cells” and the “Surface expression level” value was “higher surface expression”.

B4: CODA1298: α7-nAChR(Gly-cys) LBD: GlyRα2 IPD, SEQ ID NO: 65 comprising T225I mutation (protein)
chain: MRCSPGGVWLALAASLLHVSLQGEFQRKLYKELVKNYNPLERPVANDSQPLTVYFSLSLLQIMDVDEKNQVLTTNIWLQMSWTDHYLQWNVSEYPGVKTVRFPDGQIWKPDILLYNSADERFDATFHTNVLVNSSGHCQYLPPGIFKSSCPMDLKNFPMDVQTCKLKFGSWSYGGWSLDLQMQEADISGYIPNGEWDLVGIPGKRSERFYECCKEPYPDVTFTVIMRRRMGYYLIQMYIPSLLIVILSWVSFWINMDAAPARVALGITTVLTMTTQSSGSRASLPKVSYVKAIDIWMAVCLLFVFAALLEYAAVNFVSRQHKEFLRLRRRQKRQNKEEDVTRESRFNFSGYGMGHCLQVKDGTAVKATPANPLPQPPKDGDAIKKKFVDRAKRIDTISRAAFPLAFLIFNIFYWITYKIIRHEDVHKK
modifications: CHRNA7 (Cys-loop)/GLRA2
For the molecule B4, the “Surface expression level” value in the assay on HEK293T cells is “improves the surface expression level”.

B5: CODA1237: α7-nAChR(Gly-cys) LBD: GlyRα2 IPD, SEQ ID NO: 65 (protein)
chain: B4 chain with I225T
modifications: CHRNA7 (Cys-loop)/GLRA2
In the case of B5, in the assay with HEK293T cells, the “Surface expression level” value is reported as “higher surface expression”.

Values taken from patent US20250163130A1, “LIGAND GATED ION CHANNELS AND METHODS OF USE” (Trames Bio, Inc., priority 2022, published 2025).
